Test results published in patent publication US20030235863A1.

Molecular target: FPR-GFP fusion protein (human) (UniProt P21462)
Assay: flow cytometry, LRG assembly on DCNi G beads with 30 nM FPR-GFP

Chain of FPR-GFP fusion protein (human) (P21462 other isoform, or with tags, fused parts or gaps): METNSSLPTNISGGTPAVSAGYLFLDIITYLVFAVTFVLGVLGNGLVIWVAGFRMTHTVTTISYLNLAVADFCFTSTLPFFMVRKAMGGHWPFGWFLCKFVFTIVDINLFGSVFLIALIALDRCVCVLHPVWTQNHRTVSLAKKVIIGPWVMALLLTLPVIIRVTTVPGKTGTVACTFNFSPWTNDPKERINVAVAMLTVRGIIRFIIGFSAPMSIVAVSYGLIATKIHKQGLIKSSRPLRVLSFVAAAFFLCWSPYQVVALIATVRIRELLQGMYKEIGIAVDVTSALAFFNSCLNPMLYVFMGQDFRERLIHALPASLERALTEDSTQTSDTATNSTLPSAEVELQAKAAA

EC50: 5.3 µM
Substance: fML (peptide)
